Assay results as given in patent US20240270846A1 (published 2024).
Residue numbers refer to the chain shown, from its start.

B1: CE115HA000 H chain altered form N54S (antibody, human IgG1, kappa, L234A L235A, N297A, name in Kabat numbering)
heavy: QVQLVESGGGVVQPGRSLRLSCAASGFTFSNAWMHWVRQAPGKGLEWVAQIKAKSNSYATYYAESVKGRFTISRDDSKNSLYLQMNSLKTEDTAVYYCRYVHYGAYYGVDAWGQGTTVTVSSASTKGPSVFPLAPSSKSTSGGTAALGCLVKDYFPEPVTVSWNSGALTSGVHTFPAVLQSSGLYSLSSVVTVPSSSLGTQTYICNVNHKPSNTKVDKKVEPKSCDKTHTCPPCPAPEAAGGPSVFLFPPKPKDTLMISRTPEVTCVVVDVSHEDPEVKFNWYVDGVEVHNAKTKPREEQYASTYRVVSVLTVLHQDWLNGKEYKCKVSNKALPAPIEKTISKAKGQPREPQVYTLPPSRCELTKNQVSLSCAVKGFYPSDIAVEWESNGQPENNYKTTPPVLDSDGSFFLVSKLTVDKSRWQQGNVFSCSVMHEALHNHYTQKSLSLSPDYKDDDDK
chain: EPKSSDKTHTCPPCPAPELLGGPSVFLFPPKPKDTLMISRTPEVTCVVVDVSHEDPEVKFNWYVDGVEVHNAKTKPREEQYNSTYRVVSVLTVLHQDWLNGKEYKCKVSNKALPAPIEKTISKAKGQPREPQVCTLPPSRDELTKNQVSLWCLVKGFYPSDIAVEWESNGQPENNYKTTPPVLDSDGSFFLYSKLTVDKSRWQQGNVFSCSVMHEALHNRYTQKSLSLSP
light: DIVMTQSPLSLPVTPGEPASISCRSSQSLVHSNRNTYLHWYQQKPGQAPRLLIYKVSNRFSGVPDRFSGSGSGTDFTLKISRVEAEDVGVYYCGQGTQVPYTFGQGTKLEIKRTVAAPSVFIFPPSDEQLKSGTASVVCLLNNFYPREAKVQWKVDNALQSGNSQESVTEQDSKDSTYSLSSTLTLSKADYEKHKVYACEVTHQGLSSPVTKSFNRGEC
notes: one-arm antibody
B2: CE115HA000 H chain altered form S52cQ (antibody, human IgG1, kappa, L234A L235A, N297A, name in Kabat numbering)
heavy: B1 heavy with S55Q, S57N
chain: B1 chain
light: B1 light
notes: one-arm antibody
B3: CE115HA000 H chain altered form N54Y (antibody, human IgG1, kappa, L234A L235A, N297A, name in Kabat numbering)
heavy: B1 heavy with S57Y
chain: B1 chain
light: B1 light
notes: one-arm antibody
B4: CE115HA000 H chain altered form R16E (antibody, human IgG1, kappa, L234A L235A, N297A, name in Kabat numbering)
heavy: B1 heavy with R16E, S57N
chain: B1 chain
light: B1 light
notes: one-arm antibody
B5: CE115HA000 H chain altered form Q50I (antibody, human IgG1, kappa, L234A L235A, N297A, name in Kabat numbering)
heavy: B1 heavy with Q50I, S57N
chain: B1 chain
light: B1 light
notes: one-arm antibody
B6: CE115HA000 H chain altered form S52cK (antibody, human IgG1, kappa, L234A L235A, N297A, name in Kabat numbering)
heavy: B1 heavy with S55K, S57N
chain: B1 chain
light: B1 light
notes: one-arm antibody
B7: CE115HA000 H chain altered form S52cD (antibody, human IgG1, kappa, L234A L235A, N297A, name in Kabat numbering)
heavy: B1 heavy with S55D, S57N
chain: B1 chain
light: B1 light
notes: one-arm antibody
B8: CE115HA000 H chain altered form Q50E (antibody, human IgG1, kappa, L234A L235A, N297A, name in Kabat numbering)
heavy: B1 heavy with Q50E, S57N
chain: B1 chain
light: B1 light
notes: one-arm antibody
B9: CE115HA000 H chain altered form S30D (antibody, human IgG1, kappa, L234A L235A, N297A, name in Kabat numbering)
heavy: B1 heavy with S30D, S57N
chain: B1 chain
light: B1 light
notes: one-arm antibody
B10: CE115HA000 H chain altered form S52cV (antibody, human IgG1, kappa, L234A L235A, N297A, name in Kabat numbering)
heavy: B1 heavy with S55V, S57N
chain: B1 chain
light: B1 light
notes: one-arm antibody
B11: CE115HA000 H chain altered form Q50L (antibody, human IgG1, kappa, L234A L235A, N297A, name in Kabat numbering)
heavy: B1 heavy with Q50L, S57N
chain: B1 chain
light: B1 light
notes: one-arm antibody
B12: CE115HA000 H chain altered form Q50K (antibody, human IgG1, kappa, L234A L235A, N297A, name in Kabat numbering)
heavy: B1 heavy with Q50K, S57N
chain: B1 chain
light: B1 light
notes: one-arm antibody
B13: CE115HA000 H chain altered form S52cG (antibody, human IgG1, kappa, L234A L235A, N297A, name in Kabat numbering)
heavy: B1 heavy with S55G, S57N
chain: B1 chain
light: B1 light
notes: one-arm antibody
B14: CE115HA000 H chain altered form Q50S (antibody, human IgG1, kappa, L234A L235A, N297A, name in Kabat numbering)
heavy: B1 heavy with Q50S, S57N
chain: B1 chain
light: B1 light
notes: one-arm antibody
B15: CE115HA000 H chain altered form S52cF (antibody, human IgG1, kappa, L234A L235A, N297A, name in Kabat numbering)
heavy: B1 heavy with S55F, S57N
chain: B1 chain
light: B1 light
notes: one-arm antibody
B16: CE115HA000 H chain altered form S52cA (antibody, human IgG1, kappa, L234A L235A, N297A, name in Kabat numbering)
heavy: B1 heavy with S55A, S57N
chain: B1 chain
light: B1 light
notes: one-arm antibody
B17: CE115HA000 H chain altered form R16Q (antibody, human IgG1, kappa, L234A L235A, N297A, name in Kabat numbering)
heavy: B1 heavy with R16Q, S57N
chain: B1 chain
light: B1 light
notes: one-arm antibody
B18: CE115HA000 H chain altered form S52cL (antibody, human IgG1, kappa, L234A L235A, N297A, name in Kabat numbering)
heavy: B1 heavy with S55L, S57N
chain: B1 chain
light: B1 light
notes: one-arm antibody
B19: CE115HA000 H chain altered form Q50Y (antibody, human IgG1, kappa, L234A L235A, N297A, name in Kabat numbering)
heavy: B1 heavy with Q50Y, S57N
chain: B1 chain
light: B1 light
notes: one-arm antibody
B20: CE115HA000 H chain altered form S30G (antibody, human IgG1, kappa, L234A L235A, N297A, name in Kabat numbering)
heavy: B1 heavy with S30G, S57N
chain: B1 chain
light: B1 light
notes: one-arm antibody
B21: CE115HA000 H chain altered form Q50A (antibody, human IgG1, kappa, L234A L235A, N297A, name in Kabat numbering)
heavy: B1 heavy with Q50A, S57N
chain: B1 chain
light: B1 light
notes: one-arm antibody
B22: CE115HA000 H chain altered form R19T (antibody, human IgG1, kappa, L234A L235A, N297A, name in Kabat numbering)
heavy: B1 heavy with R19T, S57N
chain: B1 chain
light: B1 light
notes: one-arm antibody
B23: CE115HA000 H chain altered form Q50D (antibody, human IgG1, kappa, L234A L235A, N297A, name in Kabat numbering)
heavy: B1 heavy with Q50D, S57N
chain: B1 chain
light: B1 light
notes: one-arm antibody

Molecular target: T1, CD3 epsilon homodimer protein (UniProt P07766 23-126)
T1 construct: also called CD3 (CD3 epsilon)
Assay: SPR Biacore T200, CD3 epsilon homodimer on chip, antibody as analyte;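 also: homodimer amine-coupled to a CM4 sensor chip, run at 25 °C in HBS-EP+ buffer, with kinetic parameters derived in Biacore T200 Evaluation Software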

T1 sequence (P07766 23-126): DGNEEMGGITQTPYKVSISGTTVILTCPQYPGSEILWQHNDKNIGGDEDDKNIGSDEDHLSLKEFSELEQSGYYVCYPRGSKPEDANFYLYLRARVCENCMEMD

Row | KD ratio (KD of CE115HA000 / KD of altered form) | Binder
1 | 0.57 | B1
2 | 0.97 | B2
3 | 1.03 | B3
4 | 0.74 | B4
5 | 1.21 | B5
6 | 0.88 | B6
7 | 0.55 | B7
8 | 16700 | B8
9 | 0.79 | B9
10 | 0.82 | B10
11 | 1.41 | B11
12 | 0.71 | B12
13 | 0.81 | B13
14 | 47.4 | B14
15 | 0.93 | B15
16 | 0.67 | B16
17 | 0.87 | B17
18 | 0.94 | B18
19 | 49.1 | B19
20 | 0.93 | B20
21 | 22.6 | B21
22 | 0.81 | B22
23 | 75.4 | B23
